The target in one assay is T1, EphB4 Fc.
T1 construct: also called EpbB4
The experiment in a line: immobilized biotinylated peptide capturing Eph receptor Fc.

Assay [1] concerns the target T2, histidine-tagged mouse EphA2 Fc fusion protein (mouse, UniProt Q03145 26-535, limits assumed).
T2 construct: Bought; also called Eph2 Fc; not shown: Fc region; histidine tag
As to the kind of experiment: SPR (BIAcore 3000), EphA2 Fc coupled to the chip, equilibrium binding.

Consider 2 molecules from patent EP1852441B1 (The Burnham Institute, dated 2004).

Where no end group is shown, it is not given here.

T1 sequence (P54761 16-539): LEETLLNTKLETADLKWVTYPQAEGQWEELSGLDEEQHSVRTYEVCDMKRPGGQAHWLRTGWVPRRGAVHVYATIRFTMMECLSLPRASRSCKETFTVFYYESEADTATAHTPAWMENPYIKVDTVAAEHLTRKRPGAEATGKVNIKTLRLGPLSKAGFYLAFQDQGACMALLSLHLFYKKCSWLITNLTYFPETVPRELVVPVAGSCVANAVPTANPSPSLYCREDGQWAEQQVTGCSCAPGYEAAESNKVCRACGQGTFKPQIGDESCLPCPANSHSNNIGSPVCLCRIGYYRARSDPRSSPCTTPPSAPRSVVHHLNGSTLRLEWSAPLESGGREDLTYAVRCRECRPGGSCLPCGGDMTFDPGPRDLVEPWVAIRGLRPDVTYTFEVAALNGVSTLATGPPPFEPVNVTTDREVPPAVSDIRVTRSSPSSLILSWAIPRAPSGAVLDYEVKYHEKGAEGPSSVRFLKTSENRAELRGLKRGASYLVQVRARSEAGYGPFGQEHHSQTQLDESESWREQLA
T2 sequence (Q03145 26-535 limits assumed): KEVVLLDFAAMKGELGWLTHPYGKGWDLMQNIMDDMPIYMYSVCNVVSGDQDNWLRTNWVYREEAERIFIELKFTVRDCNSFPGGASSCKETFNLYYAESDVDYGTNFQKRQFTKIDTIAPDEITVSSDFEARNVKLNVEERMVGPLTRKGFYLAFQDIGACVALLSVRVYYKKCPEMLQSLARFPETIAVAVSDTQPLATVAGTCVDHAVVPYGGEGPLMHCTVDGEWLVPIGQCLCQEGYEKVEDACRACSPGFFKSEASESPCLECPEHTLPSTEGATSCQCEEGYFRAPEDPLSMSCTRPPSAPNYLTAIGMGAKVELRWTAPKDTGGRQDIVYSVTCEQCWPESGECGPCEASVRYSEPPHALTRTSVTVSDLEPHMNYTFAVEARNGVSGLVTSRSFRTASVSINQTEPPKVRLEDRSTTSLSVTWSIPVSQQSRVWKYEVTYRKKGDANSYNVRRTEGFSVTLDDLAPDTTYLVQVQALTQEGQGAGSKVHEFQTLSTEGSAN

B1: synthetic DAL peptide (DALNDWLLFRPW) (peptide)
peptide: DALNDWLLFRPWGSGSK
modifications: also: biotinylated (position not given here)
In the case of B1, the “fold more EphB4 bound than other EphB family receptors” value with EphB4 Fc is 4 fold.

B2: synthetic SWL peptide (SWLAYPGAVSYR) (peptide)
peptide: SWLAYPGAVSYRGSGSK
modifications: also: biotinylated (position not given here)
B2: binding in assay [1] was put at a Kd of 678 nM.
